This test concerns the target T1, recombinant human Periostin (human, UniProt Q15063 22-836).
T1 construct: Periostin, human, recombinant; source: bought: Sino Biological
T1 sequence (looked up): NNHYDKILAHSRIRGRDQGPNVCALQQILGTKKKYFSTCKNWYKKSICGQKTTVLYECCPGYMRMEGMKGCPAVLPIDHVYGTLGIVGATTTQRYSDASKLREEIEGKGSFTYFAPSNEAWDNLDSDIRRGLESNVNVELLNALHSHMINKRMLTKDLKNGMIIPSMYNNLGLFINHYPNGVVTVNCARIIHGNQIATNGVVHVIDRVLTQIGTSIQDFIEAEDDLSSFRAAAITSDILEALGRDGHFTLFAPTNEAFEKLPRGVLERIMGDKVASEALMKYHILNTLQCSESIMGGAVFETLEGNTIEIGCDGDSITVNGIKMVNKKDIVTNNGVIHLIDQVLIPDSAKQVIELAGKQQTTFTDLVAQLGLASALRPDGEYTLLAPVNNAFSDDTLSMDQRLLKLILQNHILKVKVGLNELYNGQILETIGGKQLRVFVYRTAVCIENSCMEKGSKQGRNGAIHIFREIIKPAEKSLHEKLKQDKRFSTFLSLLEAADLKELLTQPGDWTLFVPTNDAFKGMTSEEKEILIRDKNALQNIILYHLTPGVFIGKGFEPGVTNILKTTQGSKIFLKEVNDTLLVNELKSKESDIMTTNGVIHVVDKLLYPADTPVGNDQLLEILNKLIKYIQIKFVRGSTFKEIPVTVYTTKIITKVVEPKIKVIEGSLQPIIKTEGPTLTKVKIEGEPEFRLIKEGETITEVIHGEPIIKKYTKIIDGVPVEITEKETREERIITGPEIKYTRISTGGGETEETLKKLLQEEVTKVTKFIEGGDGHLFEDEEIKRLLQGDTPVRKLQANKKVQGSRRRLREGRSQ
Nature of the test: SPR; Biacore 3000; NINJ2 extracellular domain immobilised by amine coupling on a carboxymethyldextran chip (CMD200M); periostin injected at 231, 116, 58, 29 and 14 nM, 30 µL/min, 2 min association, 5 min dissociation; HBS-T (10 mM HEPES, 150 mM NaCl, 0.005% Tween20) pH 7.4. The conditions noted are these: both partners purified. For orientation: In SPR one partner is held on a chip, and binding of the other changes the refractive index at the surface.

B1: extracellular domain (Met1-Thr65) of recombinant human NINJ2 (domain or fragment, UniProt Q9NZG7 1-65, looked up)
chain: MESARENIDLQPGSSDPRSQPINLNHYATKKSVAESMLDVALFMSNAMRLKAVLEQGPSSHYYTT
notes: Ninjurin-2 (NINJ2), human, extracellular domain, residues Met1-Thr65; also called NINJ2 extracellular domain; source: bought: R&D Systems
B1: the Kd (in general, a measure of binding affinity in units of concentration) was 16.9 nM.

Source of the values: PMC12168268, “Targeted inhibition of Ninjurin2 promotes chemosensitivity in chemoresistant gastric cancer by suppressing cancer-initiating cells” (Biomarker Research, 2025).
